Results reported in US8889419 (INDIANA UNIVERSITY RESEARCH AND TECHNOLOGY, dated 2014).

B1: recombinant fibronectin fragment H-271 (other, human, UniProt P02751 1812-2082, looked up)
chain: AIPAPTDLKFTQVTPTSLSAQWTPPNVQLTGYRVRVTPKEKTGPMKEINLAPDSSSVVVSGLMVATKYEVSVYALKDTLTSRPAQGVVTTLENVSPPRRARVTDATETTITISWRTKTETITGFQVDAVPANGQTPIQRTIKPDVRSYTITGLQPGTDYKIYLYTLNDNARSSPVVIDASTAIDAPSNLRFLATTPNSLLVSWQPPRARITGYIIKYEKPGSPPREVVPRPRPGVTEATITGLEPGTEYTIYVIALKNNQKSEPLIGRKKT
B2: recombinant fibronectin fragment H-296 (other, human, UniProt P02751 1812-2082, looked up)
chain: AIPAPTDLKFTQVTPTSLSAQWTPPNVQLTGYRVRVTPKEKTGPMKEINLAPDSSSVVVSGLMVATKYEVSVYALKDTLTSRPAQGVVTTLENVSPPRRARVTDATETTITISWRTKTETITGFQVDAVPANGQTPIQRTIKPDVRSYTITGLQPGTDYKIYLYTLNDNARSSPVVIDASTAIDAPSNLRFLATTPNSLLVSWQPPRARITGYIIKYEKPGSPPREVVPRPRPGVTEATITGLEPGTEYTIYVIALKNNQKSEPLIGRKKTDELPQLVTLPHPNLHGPEILDVPST
notes: Expressed in E. coli

Experiments:
[1] = biological target: T1, integrin VLA-4 on HL60 cells (UniProt P13612 34-1032; P05556 21-798); assay: adhesion of HL60 cells to fragment-coated plates
T1 construct: whole, on cells; HL60 cells express VLA-4 but not VLA-5 by flow cytometry; also called CD49d

[2] = biological target: T1, integrin VLA-4 on HL60 cells; assay: adhesion of HL60 cells (VLA-4 positive) to fragment-coated plates

T1 sequence (P13612 34-1032, chain 1 of 2): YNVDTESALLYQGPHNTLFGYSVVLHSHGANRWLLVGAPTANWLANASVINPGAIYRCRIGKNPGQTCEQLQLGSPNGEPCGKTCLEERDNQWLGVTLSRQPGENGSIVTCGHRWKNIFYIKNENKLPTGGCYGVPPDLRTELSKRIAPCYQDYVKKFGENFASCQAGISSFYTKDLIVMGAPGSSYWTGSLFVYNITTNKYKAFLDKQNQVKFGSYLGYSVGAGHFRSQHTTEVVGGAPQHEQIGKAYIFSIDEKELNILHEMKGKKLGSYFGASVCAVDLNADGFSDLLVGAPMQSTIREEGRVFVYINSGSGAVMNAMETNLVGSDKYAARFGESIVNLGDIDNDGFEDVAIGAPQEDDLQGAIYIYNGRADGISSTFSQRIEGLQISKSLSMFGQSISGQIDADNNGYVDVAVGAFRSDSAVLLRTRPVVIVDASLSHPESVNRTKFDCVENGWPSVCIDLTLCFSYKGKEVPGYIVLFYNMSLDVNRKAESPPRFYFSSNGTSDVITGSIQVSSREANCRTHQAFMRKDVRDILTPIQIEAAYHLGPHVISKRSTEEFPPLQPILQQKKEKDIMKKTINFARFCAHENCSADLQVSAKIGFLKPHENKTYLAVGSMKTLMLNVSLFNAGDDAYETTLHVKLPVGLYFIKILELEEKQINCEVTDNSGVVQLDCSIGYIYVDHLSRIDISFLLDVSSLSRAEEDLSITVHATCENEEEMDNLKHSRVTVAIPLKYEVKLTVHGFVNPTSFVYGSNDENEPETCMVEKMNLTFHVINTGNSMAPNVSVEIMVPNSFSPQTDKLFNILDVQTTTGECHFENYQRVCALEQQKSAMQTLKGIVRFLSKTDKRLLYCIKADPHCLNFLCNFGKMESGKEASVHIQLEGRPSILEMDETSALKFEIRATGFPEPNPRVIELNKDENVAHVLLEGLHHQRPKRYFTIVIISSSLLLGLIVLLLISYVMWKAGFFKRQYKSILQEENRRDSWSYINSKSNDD
T1 sequence (P05556 21-798, chain 2 of 2): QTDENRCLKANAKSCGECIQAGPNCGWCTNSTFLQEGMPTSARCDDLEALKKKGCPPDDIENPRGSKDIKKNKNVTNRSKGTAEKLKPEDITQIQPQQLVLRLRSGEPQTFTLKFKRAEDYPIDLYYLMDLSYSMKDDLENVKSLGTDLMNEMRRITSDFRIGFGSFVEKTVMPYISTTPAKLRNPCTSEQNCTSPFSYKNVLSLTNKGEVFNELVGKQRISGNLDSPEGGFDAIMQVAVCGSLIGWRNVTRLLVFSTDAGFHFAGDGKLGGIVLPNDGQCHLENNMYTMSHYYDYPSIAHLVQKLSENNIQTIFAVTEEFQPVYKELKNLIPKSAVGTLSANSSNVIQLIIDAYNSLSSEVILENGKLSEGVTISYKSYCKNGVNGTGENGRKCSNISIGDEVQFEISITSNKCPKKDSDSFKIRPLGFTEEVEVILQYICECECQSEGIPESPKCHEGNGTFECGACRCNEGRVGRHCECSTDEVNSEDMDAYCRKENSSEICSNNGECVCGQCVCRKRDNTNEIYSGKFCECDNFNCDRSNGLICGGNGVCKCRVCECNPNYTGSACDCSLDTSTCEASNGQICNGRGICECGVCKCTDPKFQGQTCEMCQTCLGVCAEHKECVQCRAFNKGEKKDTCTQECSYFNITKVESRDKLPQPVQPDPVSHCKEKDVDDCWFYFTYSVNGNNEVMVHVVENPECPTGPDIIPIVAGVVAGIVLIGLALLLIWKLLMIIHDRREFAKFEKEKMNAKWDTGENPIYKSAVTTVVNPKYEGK

Binder	binding result [1]	binding result [2]
B1	no binding (tested: 2 µg/cm^2 coating)	
B2		binds
